Data as given in PMC5670239, “Structural basis for mutually exclusive co-transcriptional nuclear cap-binding complexes with either NELF-E or ARS2” (Nature Communications, 2017).

Columns and labels:
m^7GTP-CBC [1] = biological target: T1, m^7GTP-CBC (Homo sapiens, UniProt P52298+Q09161); experiment: ITC, binding to CBC in the presence of the cap analogue m^7GTP; conditions: for Kd: ITC, 25 °C, 20 mM HEPES, 120 mM NaCl, 2 mM TCEP, pH 7.8, CBC bound to m^7GTP, mean ± SD of at least two independent experiments
T1 construct: 6-histidine tag (pETM30 vector) (N, cleaved yes); made in house; host or cells: CBP20 in E. coli Rosetta 2; CBP80ΔNLS in High Five insect cells; heterodimer reconstituted on Ni-sepharose
T1 sequence (Q09161 20-790): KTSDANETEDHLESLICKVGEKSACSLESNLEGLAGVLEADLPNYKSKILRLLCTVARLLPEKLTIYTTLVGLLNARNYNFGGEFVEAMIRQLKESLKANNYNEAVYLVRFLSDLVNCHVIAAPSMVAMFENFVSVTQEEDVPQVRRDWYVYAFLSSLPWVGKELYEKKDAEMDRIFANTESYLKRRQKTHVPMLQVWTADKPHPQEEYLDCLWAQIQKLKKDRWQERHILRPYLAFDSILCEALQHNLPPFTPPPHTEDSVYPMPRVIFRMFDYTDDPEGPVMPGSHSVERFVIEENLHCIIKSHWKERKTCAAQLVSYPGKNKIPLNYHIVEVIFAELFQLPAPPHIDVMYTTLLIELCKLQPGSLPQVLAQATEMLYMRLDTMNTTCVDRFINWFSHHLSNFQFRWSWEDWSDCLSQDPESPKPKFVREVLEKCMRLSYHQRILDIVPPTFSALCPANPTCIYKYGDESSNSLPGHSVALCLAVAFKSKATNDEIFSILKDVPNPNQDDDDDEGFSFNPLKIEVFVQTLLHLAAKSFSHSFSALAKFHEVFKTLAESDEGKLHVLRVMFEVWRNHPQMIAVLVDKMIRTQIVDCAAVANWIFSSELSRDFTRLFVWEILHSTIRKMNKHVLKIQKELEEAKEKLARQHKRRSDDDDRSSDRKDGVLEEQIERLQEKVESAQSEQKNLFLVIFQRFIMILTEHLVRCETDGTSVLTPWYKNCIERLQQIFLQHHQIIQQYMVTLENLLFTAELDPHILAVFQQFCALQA
T1 sequence (P52298 1-156): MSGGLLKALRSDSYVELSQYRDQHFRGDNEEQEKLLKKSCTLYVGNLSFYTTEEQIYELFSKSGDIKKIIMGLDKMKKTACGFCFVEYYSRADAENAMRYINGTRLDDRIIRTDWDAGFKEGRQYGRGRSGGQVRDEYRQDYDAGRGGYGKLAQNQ
Source text: (§1) hARS2 isoform-4 (871 residues, UniProt:Q9BXP5-4, also known as isoform-e, NP_001122326) constructs (residues 147–871, 147–845, 763–871, 763–845, 827–871) hNELF-E (NM_002904.5) (244–380, 244–360) and hPHAX (NM_032177.3) (1–394, 103–294, 103–308, 103–327) were cloned into pETM11 (EMBL). Full-length hNELF-E (1–380) was cloned into pFASTBac and CBP20 into pETM30. Primers used are given in Supplementary Table 2. All constructs were expressed in E. coli Rosetta 2 (Novagen), except full-length NELF-E and CBP80ΔNLS (CBP80 with residues 1–19 deleted[2]), which were expressed in High Five insect cells (Life Technology). Cells were harvested and lysed by sonication in lysis buffer containing 50 mM HEPES, pH 7.8, 300 mM NaCl, 10% (v/v) glycerol, 5 mM β-mercaptoethanol. Lysates were clarified by centrifugation and applied on an equilibrated Ni-sepharose column (GE Healthcare), washed with 20 mM imidazole in lysis buffer, and eluted with 300 mM imidazole in lysis buffer. While dialysing into 20 mM HEPES, pH 7.8, 120 mM NaCl, 10% (v/v) glycerol, 5 mM β-mercaptoethanol, the N-terminal 6-histidine-tag was cleaved with His-tagged Tobacco Etch Virus (TEV) protease overnight in a ratio 1:100 mg TEV per mg protein. The cleaved protein was further purified first on Ni-sepharose to remove TEV and then using an anion exchange column (HiTrap Q, GE Healthcare) followed if necessary by a Heparin column (GE Healthcare). In both cases a NaCl gradient from 50 to 800 mM in 20 mM HEPES 7.8, 0.5 mM tris(2-carboxyethyl)phosphine was used. To reconstitute the CBC heterodimer, cleared His-tagged CBP20 lysate was first immobilised on a Ni-sepharose column. After washing the column with lysis buffer, the cleared CBP80 lysate was applied to the column and further purification steps performed as described above. To remove the access of CBP20 the flow through of the Ni-column after TEV cleavage was loaded on an anion exchange column (HiTrap Q, GE Healthcare) and CBC eluted by a NaCl gradient as described above. In the text we refer to CBP80ΔNLS and CBP80ΔNLS-CBP20 as CBP80 and CBC, respectively. ARS2^845–871, NELF-E^354–380, and NELF-E^360–380 peptides, with or without FAM label at the N-terminus, were purchased from GenScript.

m^7GTP-CBCmut = experiment: ITC, binding to mutated CBC in the presence of m^7GTP; parameters: species or system human; conditions: 25 °C, pH 7.8, CBCmut = CBP20 Y50A + CBP80 Y461A/R610E/H651A, with m^7GTP, mean ± SD of 2 experiments
Protocol: For CBC, a triple mutant in CBP80 (Y461A/R610E/H651A) was combined with various mutations in CBP20 (Y50A, Y50A/Y89A, or Y50A/Y89A/D107R).
ITC experiments were performed on a MicroCal ITC200 system (Malvern). Proteins were dialyzed overnight in buffer 20 mM HEPES, 120 mM NaCl, 2 mM tris(2-carboxyethyl)phosphine, pH 7.8. Injections of 1.5 µl protein A were added at an interval of 120–180 s into 205 µl of protein B in the cell, with a stirring speed of 800 rpm at 25 °C. The experimental data were analysed with MicroCal ITC Origin and were fitted to a single-site binding equation.

m^7GTP-CBC [2] = biological target: T1, m^7GTP-CBC; experiment: Fluorescence polarisation with FAM-labelled C-terminal peptides; format: binding; conditions: competition; 40 nM FAM peptide, 60 nM CBC, 25 µM m^7GTP, 25 °C; n = 3
Protocol: Fig. 4 Incompatibility of ARS2-PHAX and NELF-E binding to CBC. a, b Competition on m^7GTP-sepharose. a In separate experiments, different amounts of ARS2^147–871 were added to preformed CBC–NELF–E complex immobilised on m^7GTP-sepharose. […] The fluorophore FAM is represented with a star. Note that different constructs of NELF-E and ARS2 were used in c, d, and e compared to f, g, and h and are therefore represented by slightly different shapes. Error bars show the SD of three experiments
Fluorescence anisotropy binding assays were performed with N-terminal FAM-labelled ARS2^845–871 and […] peptides. 40 nM peptides were titrated with increasing concentrations of proteins in 20 mM HEPES, pH 7.8, 120 mM NaCl, 2 mM tris(2-carboxyethyl)phosphine. For the competition assay CBC–ARS2 and CBC–NELF–E complexes were preformed in the presence of 25 µM m^7GTP using 40 nM ARS2^827–871(FAM) peptide together with 60 nM CBC and 40 nM NELF-E^354–380(FAM) peptide with 1 µM CBC. […] To observe a change in polarisation at reasonable protein concentrations, CBC and NELF-E^244–380 concentrations that saturate half of the FAM-labelled peptides were used to preform the individual complexes. Fluorescence polarisation was measured at 25 °C with a microplate reader (CLARIOstar BMG LABTECH) using an excitation wavelength of 495 nm and emission wavelength of 515 nm. For analysis the polarisation value for the peptide alone was subtracted from the measurements.

CBC = biological target: T2, CBC (Homo sapiens, UniProt P52298); experiment: ITC, binding to CBC without cap analogue; conditions: ITC (MicroCal ITC200), 25 °C, 20 mM HEPES, 120 mM NaCl, 2 mM TCEP, pH 7.8, single-site fit; no cap analogue pre-bound; mean ± SD of at least two independent experiments; SD
T2 sequence (P52298 1-156): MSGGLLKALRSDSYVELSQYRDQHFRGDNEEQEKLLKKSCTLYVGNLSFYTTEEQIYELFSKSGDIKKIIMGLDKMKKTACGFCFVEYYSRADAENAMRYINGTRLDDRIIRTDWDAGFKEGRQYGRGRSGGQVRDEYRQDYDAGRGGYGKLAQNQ
T2 sequence (Q09161 20-790 partner): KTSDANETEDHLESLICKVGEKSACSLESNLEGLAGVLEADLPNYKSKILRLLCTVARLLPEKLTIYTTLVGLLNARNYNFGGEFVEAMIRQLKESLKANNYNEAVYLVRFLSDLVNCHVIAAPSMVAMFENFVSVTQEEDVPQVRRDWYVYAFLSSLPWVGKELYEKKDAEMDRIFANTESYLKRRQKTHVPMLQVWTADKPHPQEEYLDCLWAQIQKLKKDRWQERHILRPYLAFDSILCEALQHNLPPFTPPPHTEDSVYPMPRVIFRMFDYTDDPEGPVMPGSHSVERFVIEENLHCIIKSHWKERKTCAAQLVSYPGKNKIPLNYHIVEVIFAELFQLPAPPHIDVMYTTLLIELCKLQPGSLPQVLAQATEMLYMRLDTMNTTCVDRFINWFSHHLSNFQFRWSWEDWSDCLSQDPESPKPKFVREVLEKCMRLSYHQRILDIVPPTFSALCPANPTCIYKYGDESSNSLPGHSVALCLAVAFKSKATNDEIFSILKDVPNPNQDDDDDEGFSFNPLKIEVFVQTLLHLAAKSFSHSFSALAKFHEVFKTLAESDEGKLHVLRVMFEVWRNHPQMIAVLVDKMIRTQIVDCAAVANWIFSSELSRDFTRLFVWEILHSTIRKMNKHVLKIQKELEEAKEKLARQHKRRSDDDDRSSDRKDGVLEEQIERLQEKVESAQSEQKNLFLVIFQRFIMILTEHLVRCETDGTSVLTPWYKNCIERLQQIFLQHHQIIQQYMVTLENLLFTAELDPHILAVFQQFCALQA
Source text: as §1

B1: NELF-E 244–380: C-terminal human NELF-E fragment including the RRM domain, E. coli expressed (protein, UniProt P18615 244-380, looked up, fragment)
chain: GPFRRSDSFPERRAPRKGNTLYVYGEDMTPTLLRGAFSPFGNIIDLSMDPPRNCAFVTYEKMESADQAVAELNGTQVESVQLKVNIARKQPMLDAATGKSVWGSLAVQNSPKGCHRDKRTQIVYSDDVYKENLVDGF
With B1 the Kd (m^7GTP-CBC [1]) was roughly 40 nM, the Kd (m^7GTP-CBC [1]; SD) was 50 ± 10 nM and the “Enhancement of the interaction with CBC when m^7GTP is bound” value (m^7GTP-CBC [1]; ratio of ITC K D without / with m^7GTP) was “eight times higher”. For the same molecule, the “K D” value (m^7GTP-CBCmut) was “completely abolished binding”, the “Change of polarisation on titration to m^7GTP-CBC-ARS2^845–871(FAM)” value (m^7GTP-CBC [2]) was “decrease in polarisation” and the Kd (CBC) was 400 ± 200 nM.
